Assay results as given in patent US20240174716A1 (VACINO BIOTECH, published 2024).

molecular target: T1, TfR protein (Acro Biosystems. Cat. No. CD1-H5243) (UniProt P02786 89-760); assay: FOPPR (fiber optic particle plasmon resonance); peptide coupled to chip, TfR protein loaded at 0.5-1000 ng/mL
T1 construct: Bought recombinant protein; also called TfR1; transferrin receptor
Experimental: In this Example, the binding affinity of the transporter peptides disclosed herein to TfR was analyzed by fiber optic particle plasmon resonance (FOPPR). In this Example, different amino acid sites of the transporter peptide were further substituted with different amino acids of the same property to anaylze binding affinity of these variant peptides to the transferrin receptor.
To determine the affinity of the targeting peptide to TfR1, a fiber optic particle plasmon resonance (FOPPR) affinity study was performed according to the manufacturer's instruction. Briefly, 80 μL of tested peptide (10 μg/ml) dissolved in PBS buffer (pH 7.4) was pipetted into the EDC/NHS preactivated surface of standard chip NanoAu-MM (Taipei, Taiwan) for peptide conjugating to the carboxyl group of the surface sensor chip. TfR protein (Acro Biosystems. Cat. No. CD1-H5243, Newark, DE, USA) was loading to the chip with at the concentrations of 0.5 ng/mL, 1 ng/mL, 10 ng/mL, 100 ng/mL, 500 ng/mL, and 1000 ng/mL, respectively. Based on the light intensity change, the molecules interaction parameters of KD were calculated by the FOPPR system D200 (Id M3) (Taipei, Taiwan).

T1 sequence (P02786 89-760 limits assumed): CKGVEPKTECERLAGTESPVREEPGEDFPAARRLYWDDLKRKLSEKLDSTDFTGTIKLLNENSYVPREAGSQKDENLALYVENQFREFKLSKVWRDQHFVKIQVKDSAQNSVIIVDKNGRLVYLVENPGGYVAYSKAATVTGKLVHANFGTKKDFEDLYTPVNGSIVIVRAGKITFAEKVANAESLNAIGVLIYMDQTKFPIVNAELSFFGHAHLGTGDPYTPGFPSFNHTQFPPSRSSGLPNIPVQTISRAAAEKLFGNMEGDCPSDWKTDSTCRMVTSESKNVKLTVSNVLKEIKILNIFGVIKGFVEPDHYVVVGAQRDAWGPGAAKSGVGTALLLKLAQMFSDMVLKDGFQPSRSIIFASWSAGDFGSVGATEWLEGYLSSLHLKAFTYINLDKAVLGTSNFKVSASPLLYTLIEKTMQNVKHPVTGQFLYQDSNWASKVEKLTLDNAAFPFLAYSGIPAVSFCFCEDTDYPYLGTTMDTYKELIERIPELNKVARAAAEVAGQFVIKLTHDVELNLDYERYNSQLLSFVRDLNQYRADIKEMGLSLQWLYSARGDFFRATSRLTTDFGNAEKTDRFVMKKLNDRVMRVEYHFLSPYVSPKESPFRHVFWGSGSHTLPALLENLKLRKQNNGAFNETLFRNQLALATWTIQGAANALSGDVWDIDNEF

Which Kd does the source give for DISVLMKEYD (10-mer; also called transporter peptide) [PT-001] here?
The Kd was 71 nM.

With DIDVLMKEYD (10-mer; also called transporter peptide) [PT-004] as the binder, how does the Kd read?
Its Kd is 18.5 nM.

With DIHVLMKEYD (10-mer; also called transporter peptide) [PT-008] as the binder, how does the Kd read?
The Kd was 8.07 nM.

With DILVLMKEYD (10-mer; also called transporter peptide) [PT-011] as the binder, how does the Kd read?
Its Kd is 3.23 nM.

Which Kd does the source give for DIPVLMKEYD (10-mer; also called transporter peptide) [PT-014] here?
Its Kd is 52.3 nM.

For DITVLMKEYD (10-mer; also called transporter peptide) [PT-017], which Kd is on record?
Its Kd is 4.77 nM.

DISLLMKEYD (10-mer; also called transporter peptide) [PT-022] was tested. Which Kd did it give?
Its Kd is 36.6 nM.

DISVIMKEYD (10-mer; also called transporter peptide) [PT-023] was tested. Which Kd did it give?
The Kd was 22.8 nM.

How did the Kd turn out when DISVVMKEYD (10-mer; also called transporter peptide) [PT-024] was run?
The Kd was 8.22 nM.

DISVLDKEYD (10-mer; also called transporter peptide) [PT-025] was tested. Which Kd did it give?
The Kd was 0.43 nM.

DISVLNKEYD (10-mer; also called transporter peptide) [PT-026] was tested. Which Kd did it give?
Its Kd is 26 nM.

How did the Kd turn out when DISVLCKEYD (10-mer; also called transporter peptide) [PT-027] was run?
The Kd was 0.27 nM.

DISVLKKEYD (10-mer; also called transporter peptide) [PT-028] was tested. Which Kd did it give?
Its Kd is 5.14 nM.

Which Kd does the source give for DISVLEKEYD (10-mer; also called transporter peptide) [PT-029] here?
The Kd was 3.62 nM.

DISVLQKEYD (10-mer; also called transporter peptide) [PT-030] was tested. Which Kd did it give?
The Kd was 10.3 nM.

DISVLMKEYN (10-mer; also called transporter peptide) [PT-031] was tested. Which Kd did it give?
Its Kd is 4.45 nM.

For DISVLMKEYE (10-mer; also called transporter peptide) [PT-033], which Kd is on record?
Its Kd is 261 nM.

DISVLMKEYQ (10-mer; also called transporter peptide) [PT-034] was tested. Which Kd did it give?
Its Kd is 39.3 nM.

Which Kd does the source give for DISVLSKEYD (10-mer; also called transporter peptide) [PT-051] here?
The Kd was 70 nM.

With DISVLMKDYD (10-mer; also called transporter peptide) [PT-054] as the binder, how does the Kd read?
Its Kd is 59.3 nM.

DISVLMKEFD (10-mer; also called transporter peptide) [PT-055] was tested. Which Kd did it give?
The Kd was 6.08 nM.

Which Kd does the source give for DISVLMKESD (10-mer; also called transporter peptide) [PT-056] here?
Its Kd is 4.1 nM.

How did the Kd turn out when DISVLMKETD (10-mer; also called transporter peptide) [PT-057] was run?
The Kd was 1.92 nM.

With NISVLMKEYD (10-mer; also called transporter peptide) [PT-062] as the binder, how does the Kd read?
The Kd was 1.3 nM.

DISELMKEYD (10-mer; also called transporter peptide) [PT-063] was tested. Which Kd did it give?
Its Kd is 16.6 nM.

How did the Kd turn out when DISVLLKEYD (10-mer; also called transporter peptide) [PT-064] was run?
The Kd was 10.5 nM.

Which Kd does the source give for DISVLMKHYD (10-mer; also called transporter peptide) [PT-065] here?
Its Kd is 0.57 nM.

For DIHVLDKEYD (10-mer; also called transporter peptide) [PT-067], which Kd is on record?
The Kd was 0.45 nM.

For DITVLCKEYN (10-mer; also called transporter peptide) [PT-066], which Kd is on record?
Its Kd is 86.1 nM.
